Assay results: publication PMC2563026

What was measured:
[1] = target: CXCR4, endogenous on feline cells (feline (endogenous in MCC)) (UniProt P56498)
[2] = target: chimeric receptor bearing feline CD134 CRD1 in the context of human CD134, on cells (feline | human)
[3] = target: CXCR4, endogenous on feline cells (feline (endogenous in MCC)) (UniProt P56498); test: flow cytometry on cells; MCC cells stably transduced with fCD134, the CRD1 chimera, human CD134 or vector only were incubated with Fc-SU fusion proteins; bound protein detected with PE-anti-human IgG Fc; 10,000 events

Chain of UniProt P56498 (P56498 whole entry, the tested form may be a part): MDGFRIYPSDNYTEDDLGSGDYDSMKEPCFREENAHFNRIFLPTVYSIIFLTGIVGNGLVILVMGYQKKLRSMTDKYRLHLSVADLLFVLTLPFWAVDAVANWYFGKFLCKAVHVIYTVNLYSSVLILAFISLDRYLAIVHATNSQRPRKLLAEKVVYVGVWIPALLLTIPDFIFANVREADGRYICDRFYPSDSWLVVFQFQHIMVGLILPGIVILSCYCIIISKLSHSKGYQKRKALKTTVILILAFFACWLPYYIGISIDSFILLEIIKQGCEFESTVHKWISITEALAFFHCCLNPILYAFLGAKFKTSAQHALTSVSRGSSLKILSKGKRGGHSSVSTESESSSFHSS

Substance	entry of HIV(FIV) pseudotypes into MYA-1 cells with the CXCR4 antagonist AMD3100 at 0.1 μg/ml, fold reduction [1]	infection of MCC-CRD1 cells by HIV(FIV) luciferase pseudotypes, fold reduction [2]	other results
FIV CPG41 Env, wild type, on HIV(FIV) luciferase pseudotypes (natural protein)	5 fold		
FIV GL8 Env Δ2N double mutant (T271I and N342Y), on HIV(FIV) luciferase pseudotypes (natural protein)		47 fold	
FIV GL8 Env, wild type, on HIV(FIV) luciferase pseudotypes (natural protein)	100 fold		infection of MCC-CRD1 cells by HIV(FIV) luciferase pseudotypes, fold less efficient than on MCC cells expressing CD134 [2]: 300 fold
FIV GL8 Env SU-Fc fusion protein, wild type			percent binding of Fc-SU (human CD134-expressing MCC cells) [3]: 17.2%
FIV GL8 Env T271I, on HIV(FIV) luciferase pseudotypes (natural protein)		27 fold	
